According to article PMC6441110, “A novel 3-hydroxypropionic acid-inducible promoter regulated by the LysR-type transcriptional activator protein MmsR of Pseudomonas denitrificans” (Scientific Reports, 2019):

Experiments:
MmsR = molecular target: T1, MmsR (Pseudomonas denitrificans (nom. rej.), UniProt A0A9X7MYS1); test: EMSA with mmsA promoter DNA, purified MmsR with and without inducer; conditions: 25 mM 3-HP; 40 nM DNA probe; pH 7.4, 750 mM KCl; effector of DNA binding (inducer)
T1 construct: gene F1C79_09590; cell rows: native chromosomal MmsR; gene divergent from mmsA
T1 sequence (A0A9X7MYS1 1-298): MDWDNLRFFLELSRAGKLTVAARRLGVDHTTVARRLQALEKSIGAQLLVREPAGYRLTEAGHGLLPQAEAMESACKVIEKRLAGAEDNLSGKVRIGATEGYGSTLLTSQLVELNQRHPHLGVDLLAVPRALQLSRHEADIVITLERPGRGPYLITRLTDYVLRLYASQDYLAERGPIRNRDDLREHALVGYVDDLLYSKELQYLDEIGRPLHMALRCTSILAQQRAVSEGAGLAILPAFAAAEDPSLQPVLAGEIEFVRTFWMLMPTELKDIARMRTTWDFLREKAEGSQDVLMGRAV

[1] = molecular target: MmsR, LysR-type transcriptional activator protein of Pseudomonas denitrificans, tagged with six histidine residues at the C-terminus (Pseudomonas denitrificans ATCC 13867); test: native gel or EMSA + SEC; native PAGE and/or gel filtration of purified His-tagged MmsR at the high concentration of 550 nM; monomer to dimer
[2] = molecular target: T2, MmsR (LysR-type transcriptional activator, C4-LysR) (Pseudomonas denitrificans ATCC 13867, UniProt A0A9X7MYS1 1-298); test: EMSA; no 3-HP; 50 mM Tris pH 7.4, 750 mM KCl (1X as printed), 0.5 mM DTT, 0.5 mM EDTA, room temperature; EMSA 40 nM DNA, 0-48.5 nM MmsR, 30 min; footprinting 230 nM DNA, 0-1.2 uM MmsR; conditions: protein: recombinant; tags: C-terminal His6 (pET30b+); chain copies: 2; label: none (SYBR Green stain); blunt
T2 sequence: T1 sequence (A0A9X7MYS1 1-298)

[3] = molecular target: T2, MmsR (LysR-type transcriptional …); test: EMSA; no 3-HP; stronger shift than F1M2; 50 mM Tris pH 7.4, 750 mM KCl (1X as printed), 0.5 mM DTT, 0.5 mM EDTA, room temperature; EMSA 40 nM DNA, 0-48.5 nM MmsR, 30 min; footprinting 230 nM DNA, 0-1.2 uM MmsR; conditions: protein: recombinant; tags: C-terminal His6 (pET30b+); chain copies: 2; label: none (SYBR Green stain); blunt
[4] = molecular target: T2, MmsR (LysR-type transcriptional …); test: DNase I footprinting; no 3-HP; O1 more protected than O2; 50 mM Tris pH 7.4, 750 mM KCl (1X as printed), 0.5 mM DTT, 0.5 mM EDTA, room temperature; EMSA 40 nM DNA, 0-48.5 nM MmsR, 30 min; footprinting 230 nM DNA, 0-1.2 uM MmsR; conditions: protein: recombinant; tags: C-terminal His6 (pET30b+); chain copies: 2; blunt

`O=C(O)CCO` [compound 1, 3-hydroxypropionic acid] was tested, and the “EMSA with mmsA promoter DNA, purified MmsR with and without inducer” value (MmsR) was 3-HP promotes the binding affinity between MmsR and the PmmsA promoter.

For “MmsR, LysR-type transcriptional activator protein of Pseudomonas denitrificans, tagged with six histidine residues at the C-terminus (natural protein)”, the stoichiometry N [1] was 2.

B1: F12 (O1 and O2 intact) (dsDNA)
DNA 1: GTCAGCCTCAGCGCACCTCGAATGTGCAAAAACGCAGACCATACTTGCACATCACCGCATTGAGTACATCAAAAATGCACTGTTAGGATCGATCCAGACAACAAAAAAGCCACAGGCTGGGAGAATCCCG
DNA 2: CGGGATTCTCCCAGCCTGTGGCTTTTTTGTTGTCTGGATCGATCCTAACAGTGCATTTTTGATGTACTCAATGCGGTGATGTGCAAGTATGGTCTGCGTTTTTGCACATTCGAGGTGCGCTGAGGCTGAC
B1: binds [2].

B2: F12M (O1 intact, O2 mutant) (dsDNA)
DNA 1: GTCAGCCTCAGCGCACCTCGAATGTGCAAAAACGCAGACCATACTTGCACATCACCGCATTGAGTACATCAATCCTTGCTTGTTAGGATCGCGCCCAGGCACAAAAAAGCCACAGGCTGGGAGAATCCCG
DNA 2: CGGGATTCTCCCAGCCTGTGGCTTTTTTGTGCCTGGGCGCGATCCTAACAAGCAAGGATTGATGTACTCAATGCGGTGATGTGCAAGTATGGTCTGCGTTTTTGCACATTCGAGGTGCGCTGAGGCTGAC
B2: binds [3].

B3: 169 bp footprinting fragment (dsDNA)
DNA 1: CCGCAGGTTGTCCCAGTCCATGTCAGCCTCAGCGCACCTCGAATGTGCAAAAACGCAGACCATACTTGCACATCACCGCATTGAGTACATCAAAAATGCACTGTTAGGATCGATCCAGACAACAAAAAAGCCACAGGCTGGGAGAATCCCGATGACCGCAACTGCCCCG
DNA 2: CGGGGCAGTTGCGGTCATCGGGATTCTCCCAGCCTGTGGCTTTTTTGTTGTCTGGATCGATCCTAACAGTGCATTTTTGATGTACTCAATGCGGTGATGTGCAAGTATGGTCTGCGTTTTTGCACATTCGAGGTGCGCTGAGGCTGACATGGACTGGGACAACCTGCGG
B3: binds [4].
